Test results from publication PMC4242106 (Science translational medicine, 2010).

Type: in vivo, human
Conditions: mean of the five repeat experiments; subcutaneous; controller PK setting SLOW

**Q.** For Insulin lispro, which “Inferred lispro PK t95%, Mean” value is on record?
**A.** Its value is 8.9 h.

**Q.** And the “Inferred lispro PK tmax, Mean” value?
**A.** The value was 1.48 h.
